Results from PMC10030653, “ClpC2 protects mycobacteria against a natural antibiotic targeting ClpC1-dependent protein degradation” (Communications Biology, 2023).

Tests used:
[1] = molecular target: cyclomarin A (Streptomyces sp. CNB-982); assay: ITC; 50 uM (monomer) ClpC1 NTD or ClpC2 titrated into 5 uM CymA at 37 C; 50 mM HEPES-KOH pH 7.5, 150 mM KCl, 9% DMSO, 1 mM EDTA; one-site binding model
[2] = tested on: DNA probe containing the clpC2 operator site; assay: EMSA, ClpC1 binding to DNA
ClpC1 NTD = conditions: cited from earlier work
ClpC1 = ClpC1 (Mycobacterium tuberculosis, UniProt P9WPC9 1-848); assay: EMSA; 1-25 uM ClpC1, 0.5 nM DNA; EMSA: 5 mM HEPES-KOH pH 7.5, 30 mM KCl, 1% glycerol, 10 mM MgCl2, room temperature 20 min, 12% polyacrylamide gel; conditions: protein: recombinant; tags: untagged; label: 5'-FAM; blunt
ClpC2 WT = molecular target: T1, ClpC2 WT (Mycobacterium tuberculosis, UniProt P9WPC7 1-252); assay: EMSA; 1-25 nM ClpC2, 0.5 nM DNA, no CymA; EMSA: 5 mM HEPES-KOH pH 7.5, 30 mM KCl, 1% glycerol, 10 mM MgCl2, room temperature 20 min, 12% polyacrylamide gel; conditions: protein: recombinant; tags: untagged; chain copies: 2; label: 5'-FAM; blunt
T1 sequence: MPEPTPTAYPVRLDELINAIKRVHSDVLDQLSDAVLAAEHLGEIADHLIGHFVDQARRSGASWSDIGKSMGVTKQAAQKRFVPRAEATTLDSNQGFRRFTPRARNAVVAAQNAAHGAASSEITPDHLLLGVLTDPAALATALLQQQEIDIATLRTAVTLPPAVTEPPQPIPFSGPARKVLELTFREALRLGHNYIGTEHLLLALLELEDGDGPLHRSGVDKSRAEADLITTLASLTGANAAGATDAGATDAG

ClpC1, sequence (P9WPC9 whole entry): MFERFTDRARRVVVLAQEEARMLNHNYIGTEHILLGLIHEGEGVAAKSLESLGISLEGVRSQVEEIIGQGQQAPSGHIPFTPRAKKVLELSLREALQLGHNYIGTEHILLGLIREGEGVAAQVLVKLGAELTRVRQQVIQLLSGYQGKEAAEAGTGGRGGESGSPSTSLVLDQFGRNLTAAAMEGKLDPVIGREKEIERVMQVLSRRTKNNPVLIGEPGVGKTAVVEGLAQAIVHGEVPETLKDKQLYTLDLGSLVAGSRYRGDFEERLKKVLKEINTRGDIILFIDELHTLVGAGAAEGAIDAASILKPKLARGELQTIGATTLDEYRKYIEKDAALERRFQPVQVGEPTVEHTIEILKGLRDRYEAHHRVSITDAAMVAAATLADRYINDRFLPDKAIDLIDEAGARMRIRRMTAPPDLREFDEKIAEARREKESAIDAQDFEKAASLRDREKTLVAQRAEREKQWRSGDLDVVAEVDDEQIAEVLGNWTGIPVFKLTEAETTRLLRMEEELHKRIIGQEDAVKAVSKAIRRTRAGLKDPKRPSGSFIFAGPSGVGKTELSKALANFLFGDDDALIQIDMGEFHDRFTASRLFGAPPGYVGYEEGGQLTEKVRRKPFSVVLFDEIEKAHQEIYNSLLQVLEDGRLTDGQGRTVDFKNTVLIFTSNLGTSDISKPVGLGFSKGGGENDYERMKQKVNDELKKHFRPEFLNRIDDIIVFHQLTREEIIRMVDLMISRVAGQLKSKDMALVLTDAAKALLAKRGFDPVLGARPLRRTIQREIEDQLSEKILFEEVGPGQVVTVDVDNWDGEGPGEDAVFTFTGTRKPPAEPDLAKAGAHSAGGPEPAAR

ClpC1 N-terminal domain, residues 1-145 (ClpC1 NTD) (from UniProt P9WPC9 1-145) (domain or fragment)
Kd [1]: 2.3 nM

ClpC1: AAA+ chaperone ClpC1, purified Mtb protein
affinity of ClpC1 for DNA relative to ClpC2 ([2]; EMSA): at least two orders of magnitude lower affinity than exhibited by ClpC2
sequence specificity of ClpC1 for clpC2 operator site ([2]; EMSA with unlabelled competitor DNA): little sequence specificity for the clpC2 operator site
KD, ClpC1 to DNA ([2]; EMSA, 1-25 µM ClpC1, 0.5 nM DNA probe with clpC2 operator site): low micromolar range

Mycobacterium tuberculosis ClpC2 (full length, wild type) (natural protein)
Kd [1]: 2.2 nM
stoichiometry N [1]: 1

ecumicin
target binding domain (ClpC1 NTD): specifically target ClpC1 NTD

lassomycin
target binding domain (ClpC1 NTD): specifically target ClpC1 NTD

B1: clpC2_FAM_EMSA 41 bp operator probe (dsDNA)
DNA 1: ACAATGCATAACGTCAACCTACTGTTGACGTCATGCCGGAG
DNA 2: CTCCGGCATGACGTCAACAGTAGGTTGACGTTATGCATTGT
binding result (ClpC1): binds
binding result (ClpC2 WT): binds
